Where a chain is given by its changes, count along the chain named.
B1: FGF23 A^188: FGF23^25-240, A^188 (protein)
chain: YPNASPLLGSSWGGLIHLYTATARNSYHLQIHKNGHVDGAPHQTIYSALMIRSEDAGFVVITGVMSRRYLCMDFRGNIFGSHYFDPENCRFQHQTLENGYDVYHSPQYHFLVSLGRAKRAFLPGMNPPPYSQFLSRRNEIPLIHFNTPIPRRHTRSAEDDSERAPLNVLKPRARMTPAPASCSQELPSAEDNSPMASDPLGVVRGGRVNTHAGGTG
B2: FGF23 A^188,222: FGF23^25-240, A^188,222 (protein)
chain: B1 chain with D198A
B3: FGF23: FGF23^25-240, native protein (protein)
chain: B1 chain with A164D

Assays:
[1] = test system: FGF21-signaling in 293/KLB cells; assay: Block of FGF21-signaling in 293/KLB cells; type: cell-based; conditions: Table 1, FGF21 associated antagonist
Excerpt: The sequence homology in these endocrine FGF peptides (FGF23^180-205, FGF23^212-239, FGF19^191-216 and FGF21^185-209) is provided in FIG. 2.

FGFR/KL complex = assay: FGF23-signaling activity (stimulation of Erk-phosphorylation) in 293/KL cells; type: cell-based, human; conditions: for EC50: Table 3, p-Erk
Method: (§1) FIGS. 5A-5D provide data relating to the activities of FGF23-analogs containing one or two active KL-interaction sites by in vitro and in vivo methods. […] FIGS. 5B-5D are scatter plots presenting an in vivo assessment of FGF23-activity in mice. WT mice were treated with 0.5 mg/kg body weight with either FGF23, FGF23 A^188, FGF23 A^222, FGF23 A^188,222, or vehicle, n=5 or 10/group, and post 3-hours the gene expression changes were studied by quantitative real time PCR for target genes, FIG. 5B represents measurement of Cyp24a1, FIG. 5C represents measurement of Cyp27b1, and FIG. 5D represents measurement of Egr1. The data is presented as a scatter plot where each dot represents one animal, mean ±SEM. One-way ANOVA with Tukey's comparison was employed for statistical analyses where***P<0.001 vs. vehicle; #P<0.05, ##P<0.01, ###P<0.001 vs FGF23; and $$$P<0.001 vs FGF23 A^188,222 was calculated.
Whether FGF23-based agonism can employ each of the two KL-interaction sites as witnessed in the C72 peptide antagonist was studied. To do so, a selective mutation at position Asp188 or Asp222 was made in the native FGF23. […] This is consistent with prior reports where C-terminal sequence deletion after residue 205 position had no apparent effect on cellular signaling (FIG. 5A, Table 3). […] Asp188 residue is purported to be singularly essential for KL-binding and FGF23 activity, and its importance was substantiated by the lack of antagonism when the C26 peptide was similarly mutated from Asp to Ala (FIG. 4A). […] To confirm that these observations were not resulting from unexpected changes in higher order structure that was not apparent in biosynthesis, purification, or formulation of the mutant proteins their biophysical integrity were directly assessed by thermal denaturation.
The N-terminal domain of the endocrine FGFs primarily determines the FGFR-activation while the C-terminal sequence guides the co-receptor specificity with a Klotho co-receptor, KL or KLB. The receptor complex specificity among the endocrine FGF-proteins can be modulated by altering their C-terminal domains. Consequently, two FGF21-23 chimeric protein analogs were prepared containing the FGF21 N-terminal core with its C-terminal KLB-binding peptide replaced with an FGF23 C-terminal peptide sequence constituted by C72 (FGF21-23 C72) or C26 (FGF21-23 C26) (Table 3).

[2] = test system: FGFR/KL-downstream targets Cyp24a1, Cyp27b1 and Egr1; assay: Mouse kidney gene expression after FGF23 protein analogs (quantitative real time PCR); type: in vivo; conditions: WT mice, 0.5 mg/kg, 3 hours
Method: as §1
To test whether C28 as the second KL-interaction site can promote FGF23 in vivo activity, the single site FGF23-analogs were assessed for their ability to alter kidney gene expression in normal mice. Four proteins (FGF23, FGF23 A188, FGF23 A222 or FGF23 A188, 222 analogs) were each dosed to mice 0.5 mg/kg and 3 hours later quantitative real time PCR was employed to assess kidney mRNA expression of the FGFR/KL-downstream targets Cyp24a1, Cyp27b1 and early growth response protein 1 (Egr1). […] This is not surprising since the optimal treatment time for Egrl modulation is as early as 1 hour for FGF-signaling measurements. The magnitude in upregulation of gene expression for Cyp24a1 was the highest, with twenty-fold induction by native FGF23 treatment (FIG. 5B). […] Similarly, the Egrl induction is reduced for FGF23 A188 and FGF23 A222 analogs as compared to native FGF23 (P<0.05, FIG. 5D), but no difference is observed among the analogs and FGF23 for Cyp27b1 (FIG. 5C).

Sequence of FGFR/KL complex (Q9UEF7 34-1012, one chain of several): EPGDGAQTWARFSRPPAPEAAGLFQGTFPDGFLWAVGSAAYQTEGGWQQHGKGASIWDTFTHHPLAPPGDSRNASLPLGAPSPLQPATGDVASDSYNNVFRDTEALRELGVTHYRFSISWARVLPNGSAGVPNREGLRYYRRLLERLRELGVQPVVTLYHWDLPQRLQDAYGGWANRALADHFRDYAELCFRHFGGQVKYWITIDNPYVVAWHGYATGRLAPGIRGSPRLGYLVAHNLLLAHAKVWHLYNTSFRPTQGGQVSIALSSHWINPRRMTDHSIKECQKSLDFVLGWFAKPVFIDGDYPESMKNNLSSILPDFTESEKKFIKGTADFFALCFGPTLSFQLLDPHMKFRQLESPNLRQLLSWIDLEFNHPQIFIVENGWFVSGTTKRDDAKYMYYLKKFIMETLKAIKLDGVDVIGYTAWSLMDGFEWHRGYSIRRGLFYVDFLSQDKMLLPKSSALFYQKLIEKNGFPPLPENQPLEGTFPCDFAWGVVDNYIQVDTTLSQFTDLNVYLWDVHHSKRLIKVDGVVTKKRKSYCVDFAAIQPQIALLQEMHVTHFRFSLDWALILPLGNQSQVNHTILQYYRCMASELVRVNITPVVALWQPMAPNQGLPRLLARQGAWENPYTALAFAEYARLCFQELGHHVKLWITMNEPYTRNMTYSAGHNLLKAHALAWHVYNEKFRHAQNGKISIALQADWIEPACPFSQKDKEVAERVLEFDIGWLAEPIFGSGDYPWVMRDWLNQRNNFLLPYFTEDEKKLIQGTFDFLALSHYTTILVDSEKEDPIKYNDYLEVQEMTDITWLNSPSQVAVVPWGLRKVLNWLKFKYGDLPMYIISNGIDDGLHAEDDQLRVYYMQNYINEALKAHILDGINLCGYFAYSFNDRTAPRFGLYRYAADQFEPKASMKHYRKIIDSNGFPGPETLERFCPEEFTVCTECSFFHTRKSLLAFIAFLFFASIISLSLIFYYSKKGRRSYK

EC50 (FGFR/KL complex) [nM]	Molecule	IC50 [1] [nM]	FGF23-type agonism / FGFR/KL activation (in words) (FGFR/KL complex)	kidney Cyp24a1 mRNA expression vs vehicle [2]	kidney Cyp27b1 mRNA expression vs vehicle [2]	Egr1 induction as compared to native FGF23 ([2]; kidney)	magnitude of Cyp24a1 effect as compared to native FGF23 ([2]; kidney)	magnitude of upregulation of Cyp24a1 gene expression (induction) ([2]; kidney)
	21C25: FGF21 associated antagonist (FGF21^185-209, C25) (PPDVGSSDPLSMVGPSQGRSPSYAS)	75.2 ± 19						
0.28 ± 0.08	B1		retained full potency	significant elevation	coordinate suppression	reduced	fractionally reduced	
	B2		bioactivity was abrogated	inactive	inactive	statistically different		
0.16 ± 0.05	B3			significant elevation	coordinate suppression			twenty-fold

Reference: patent US20230382966A1, “NOVEL KLOTHO INTERACTION SITE IN THE C-TERMINUS OF FGF23” (INDIANA UNIVERSITY RESEARCH AND TECHNOLOGY CORPORATION, priority 2020, published 2023)
